Measurements: the supplement of paper PMC11246515
± gives the standard deviation of the averaged measurements.

Experiment: total protein half-life in vivo (active degradation + dilution); higher = more stable protein
[1] = E. coli NCM3722 delta-clpP, growth: N-lim chemostat, doubling time 6 h
[2] = E. coli NCM3722 delta-hslV, growth: N-lim chemostat, doubling time 6 h
[3] = E. coli NCM3722 delta-lon, growth: N-lim chemostat, doubling time 6 h
[4] = E. coli NCM3722 delta-clpP delta-lon delta-hslV, growth: N-lim chemostat, doubling time 6 h
[5] = E. coli NCM3722 delta-smpB, growth: N-lim chemostat, doubling time 6 h
[6] = wild type E. coli NCM3722, growth: C-lim chemostat, doubling time 3 h
[7] = wild type E. coli NCM3722, growth: C-lim chemostat, doubling time 6 h
[8] = wild type E. coli NCM3722, growth: C-lim chemostat, doubling time 12 h
[9] = wild type E. coli NCM3722, growth: N-lim chemostat, doubling time 6 h
[10] = wild type E. coli NCM3722, growth: N-lim chemostat, doubling time 12 h
[11] = wild type E. coli NCM3722, growth: P-lim chemostat, doubling time 6 h
[12] = wild type E. coli NCM3722, growth: P-lim chemostat, doubling time 12 h

| Sequence | total protein half-life in vivo [1] [h] | total protein half-life in vivo [2] [h] | total protein half-life in vivo [3] [h] | total protein half-life in vivo [4] [h] | total protein half-life in vivo [5] [h] | total protein half-life in vivo [6] [h] | total protein half-life in vivo [7] [h] | total protein half-life in vivo [8] [h] | total protein half-life in vivo [9] [h] | total protein half-life in vivo [10] [h] | total protein half-life in vivo [11] [h] | total protein half-life in vivo [12] [h] |
| --- | --- | --- | --- | --- | --- | --- | --- | --- | --- | --- | --- | --- |
| MKNTKLLLAIATSAALLTGCQNTHGIDTNMAISSGLNAYKAATLSDADAKAIANQGCAEMDSGNQVASKSSKYGKRLAKIAKALGNNINGTPVNYKVYMTSDVNAWAMANGCVRVYSGLMDMMNDNEIEGVLGHELGHVALGHSLAEMKASYAIVAARDAISATSGVASQLSRSQLGDIAEGAINAKYSRDKESEADDFSFDLLKKRGISTQGLVGSFETLASLDGGRTQSMFDSHPPSTERAQHIRDRIASGK | 3.87 | 4.19 | 5.88 | – | – | – | – | – | – | – | – | – |
| MRHSLPYRMLRKRPMKLSTTVILMVSAVLFSVLLVVHLIYFSQISDMTRDGLANKALAVARTLADSPEIRQGLQKKPQESGIQAIAEAVRKRNDLLFIVVTDMQSLRYSHPEAQRIGQPFKGDDILKALNGEENVAINRGFLAQALRVFTPIYDENHKQIGVVAIGLELSRVTQQINDSRWSIIWSVLFGMLVGLIGTCILVKVLKKILFGLEPYEISTLFEQRQAMLQSIKEGVVAVDDRGEVTLINDAAQELLNYRKSQDDEKLSTLSHSWSQVVDVSEVLRDGTPRRDEEITIKDRLLLINTVPVRSNGVIIGAISTFRDKTEVRKLMQRLDGLVNYADALRERSHEFMNKLHVILGLLHLKSYKQLEDYILKTANNYQEEIGSLLGKIKSPVIAGFLISKINRATDLGHTLILNSESQLPDSGSEDQVATLITTLGNLIENALEALGPEPGGEISVTLHYRHGWLHCEVNDDGPGIAPDKIDHIFDKGVSTKGSERGVGLALVKQQVENLGGSIAVESEPGIFTQFFVQIPWDGERSNR [P0AEC8] | 6.33 | 5.74 ± 0.12 | 5.85 ± 0.23 | 6.93 ± 0.11 | 5.57 ± 0.62 | 2.98 ± 0.12 | 5.883 ± 0.049 | 11.9 ± 0.56 | 6.25 ± 0.84 | 9.85 ± 3 | 6.32 | 11.6 ± 0.52 |
| MAKNIPFKLILEKAKDYQADMTRFLRDMVAIPSESCDEKRVVHRIKEEMEKVGFDKVEIDPMGNVLGYIGHGPRLVAMDAHIDTVGIGNIKNWDFDPYEGMETDELIGGRGTSDQEGGMASMVYAGKIIKDLGLEDEYTLLVTGTVQEEDCDGLCWQYIIEQSGIRPEFVVSTEPTDCQVYRGQRGRMEIRIDVQGVSCHGSAPERGDNAIFKMGPILGELQELSQRLGYDEFLGKGTLTVSEIFFTSPSRCAVADSCAVSIDRRLTWGETWEGALDEIRALPAVQKANAVVSMYNYDRPSWTGLVYPTECYFPTWKVEEDHFTVKALVNAYEGLFGKAPVVDKWTFSTNGVSIMGRHGIPVIGFGPGKEPEAHAPNEKTWKSHLVTCAAMYAAIPLSWLATE | – | 3.34 ± 0.23 | > 8 | – | 3.6 | 2.93 ± 0.037 | 5.23 ± 1.1 | 8.78 ± 0.98 | 3.7 ± 0.69 | 6.26 ± 0.46 | 5.23 | 9.14 ± 1.7 |
| MTVPTYDKFIEPVLRYLATKPEGAAARDVHEAAADALGLDDSQRAKVITSGQLVYKNRAGWAHDRLKRAGLSQSLSRGKWCLTPAGFDWVASHPQPMTEQETNHLAFAFVNVKLKSRPDAVDLDPKADSPDHEELAKSSPDDRLDQALKELRDAVADEVLENLLQVSPSRFEVIVLDVLHRLGYGGHRDDLQRVGGTGDGGIDGVISLDKLGLEKVYVQAKRWQNTVGRPELQAFYGALAGQKAKRGVFITTSGFTSQARDFAQSVEGMVLVDGERLVHLMIENEVGVSSRLLKVPKLDMDYFE | 4.02 ± 0.13 | 3.84 ± 0.13 | 4.33 ± 0.27 | 5.65 ± 1.1 | 3.561 ± 0.012 | 2.94 ± 0.055 | 4.88 ± 0.19 | 10.48 ± 0.072 | 3.599 ± 0.011 | 7.77 ± 3.8 | 4.92 ± 0.1 | 10.4 ± 0.31 |
